B1: Intersectin-2, residues 1129 to 1183; numbered along this chain, Q9NZM3 (parent)
chain: VCQVIAMYDYAANNEDELSFSKGQLINVMNKDDPDWWQGEINGVTGLFPSNYVKM

Variants of: B1
Assay: abundance fitness (aPCA) (normalised: wild type 0, dead -1); higher = more abundant; growth selection in yeast, the domain comes from the species named
Settings: Homo sapiens

Abundance fitness of substitutions, site by site:
N27: P -0.351, K -0.052, T -0.043, Y -0.081, Q 0.012, H -0.089, E 0.039, I -0.015, L -0.07, M -0.02, W -0.123, F -0.112, R -0.037, G -0.122, S -0.05, V -0.098, C -0.046
L25: K -0.064, M 0.031, E 0.057, D 0.024, P -0.126, I 0.006, F -0.006, Q -0.089, T -0.059, G -0.035, N -0.054, S -0.01, H -0.054, W -0.098, Y -0.115, C -0.088, V -0.011
D33: W -0.237, M -0.12, N -0.034, R -0.015, E -0.009, L -0.077, F -0.24, C 0.042, P -0.287, G -0.043, I -0.112, S -0.037, T -0.023, V -0.092, H 0.103, A -0.065
D16: H -0.101, W -0.117, P -0.075, Q -0.044, V -0.082, N -0.068, G -0.02, T -0.126, Y 0.047, R 0.001, L -0.034, K 0.016, M -0.066, S -0.004, I 0.109
M29: I -0.036, T 0.014, N -0.187, P -0.496, E -0.006, D -0.077, H -0.06, R -0.014, V -0.001, W -0.053, Y -0.18, S -0.039, K -0.075, G -0.065, L -0.013, Q -0.125, C -0.022, A -0.016
F20: P -0.919, R -0.98, D -1.03, V -0.357, K -0.921, L -0.079, H -0.988, Y -0.497, C -0.596, I -0.163, M -0.26, A -0.998, T -0.88, Q -0.844, S -0.871
G23: T -0.21, N 0, V -0.903, D -0.016, H 0.023, Q -0.181, Y -0.047, R -0.195, K -0.103, M -0.262, I -0.866, S -0.07, P -1.06, W -0.201, E -0.098, A -0.161, C -0.247
K22: D -0.22, A -0.027, R -0.121, C -0.061, P -0.154, Q 0.033, W -0.362, V -0.074, I -0.063, M -0.118, T -0.064, S -0.084, F -0.164, Y -0.172, H -0.146, G -0.097, N -0.025, E -0.036, L -0.146
S21: V -0.032, I -0.045, C -0.053, D -0.021, W -0.125, E -0.084, Q -0.137, L -0.037, H 0.082, A 0.001, P -0.04, T -0.028, N -0.006, K 0.002, G -0.039, Y -0.12, R -0.02, F -0.117, M -0.05
E17: M -0.037, T -0.158, I -0.215, L -0.124, N -0.271, Q -0.042, R -0.016, K -0.089, F -0.11, P -0.756, H 0.048, A -0.174, G -0.039, D -0.16, W -0.322, C -0.105, V -0.145, Y 0.064
D32: W -0.086, M -0.043, K -0.007, N 0.021, C -0.089, F -0.205, T -0.075, H -0.18, Q 0.046, S -0.063, R -0.049, P 0.084, L -0.11, Y -0.077, A -0.042
L18: T -0.778, D -1.04, F -0.2, Q -0.704, C -0.378, W -0.841, I -0.001, Y -0.966, A -0.715, K -0.647, H -0.512, R -0.979, M -0.046, P -0.895, N -0.783, G -0.861, V -0.092, S -0.854
Q24: F -0.015, K -0.118, R -0.128, C -0.151, L -0.199, V -0.078, W -0.038, S -0.073, M -0.051, G -0.073, H -0.154, N -0.05, D 0.022, E -0.007, Y -0.153
P34: V -0.033, S -0.013, C -0.195, A 0.005, K 0.055, Q 0.029, N 0.036, T -0.009, D -0.01, M -0.015, H -0.194, Y -0.147, E 0.03, G -0.028, W -0.161, L -0.079, R -0.018, I -0.071
N30: Y -0.117, F -0.09, D -0.087, G -0.04, M -0.025, V -0.045, Q 0.019, P -0.688, H -0.01, C 0.005, A -0.002, K -0.001, S -0.028, E -0.046, T -0.034, I -0.135, W -0.16, R -0.019, L -0.021
I26: T -0.88, K -0.972, A -0.961, Y -0.657, H -1.07, M -0.232, N -0.719, L -0.065, F -0.085, W -0.971, D -0.857, P -0.925, R -0.951, V -0.089, E -0.789, G -0.821
K31: V 0.22, F -0.039, Y -0.103, W -0.138, H -0.148, Q -0.039, D -0.044, T 0.102, R -0.061, E 0.006, A 0.173, G -0.031, I 0.029, C 0.138
V28: F -0.778, M -0.155, R -0.718, A -0.371, I 0.006, C -0.077, L -0.048, E -0.996, Q -1.04, G -0.937, K -1.04, W -0.963, Y -0.87, N -1.01, S -0.94, P -0.882
S19: G -0.052, R -0.181, P -0.166, L -0.615, E -0.193, D -0.168, Y -0.197, Q -0.217, M -0.21, H -0.123, I -0.515, C -0.066, F -0.256, A -0.045, W -0.313, N -0.047, K -0.163
D35: W -0.145, Y -0.075, Q -0.099, R -0.021, M -0.1, L -0.029, N -0.032, I 0.03, C -0.167, S -0.035, K -0.071, P -0.39, F -0.085, V -0.04, H -0.048

Reference: the Human Domainome abundance scans (Beltran et al. 2025)
